The values below come from the nanobody polyreactivity screen of Harvey et al. (2022).

The nature of the series: yeast display, Sf9 membrane polyspecificity reagent, FACS + sequencing; frameworks hold sequencing errors. In a few lines:
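After 36–48 hours of galactose induction, yeast (Saccharomyces cerevisiae BJ5465) displaying a synthetic nanobody library were stained at 4 °C for 1 hour with 10% biotinylated, detergent-solubilized Sf9 membrane reagent. Streptavidin microbeads enriched the stained cells before FACS sorting into low and high (top ~1%) gates on anti-HA and streptavidin fluorescence. Each clone's polyreactivity label reflects its gate of origin.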
With “QVQLVESGGGLVQAGGILRLSCAASGRTFSRYAMGWYRQAPGKERELVAAITWDGGSTYYADSVKGRFTISRDNAKNSVYLLMNSLKPEDTAVYYFAARYIRNRMNYWGQGTQVTVSS”, the “polyreactivity (PSR sort gate)” value is reported as “high polyreactivity”.

For “QVQLVESGGGLVQAGGILRLSCAASGRTLYHYVMGWYRQAPGKERELVAAISSGGSTYYADSVKGRFTISRDNAKNTVYLQMNSLKPEDTEVYYCAAGRRGDWGQGTQVTVSS”, the “polyreactivity (PSR sort gate)” value is listed as “high polyreactivity”.

Turning to “QVQLVESGGGLVQAGGILRLSCAASGSIFDFYAMGWYRQAPGKERELVAAISGSGGSTYYADSVKGRFTISRDNAKNTVYLQMNSLKPEDTAVYYCSYYYWGQGTQVTVSS”, the “polyreactivity (PSR sort gate)” value is given as “low polyreactivity”.

Take “QVQLVESGGGLVQAGGILRLSCAASGSIFGGYGMGWYRQAPGKERELVAAITSVSSTYYADSVKGRFTISRDNAMNTVYVQMNSLKPEDTAVYYCAARPYPHSAYEGDYWGRGTQVTVSS”: the “polyreactivity (PSR sort gate)” value is reported as “low polyreactivity”.

In the case of “QVQLVESGGGLVQAGGILRLSCAASGSIFPNYAMGWYRQAPGKEREFVAAISSSGGSTYYADYVKGRFTISRENAKNTVYLQMNSLKPDDTAVYYCAAAYVGYYYSRGFDYWGQGTQVTVSS”, the “polyreactivity (PSR sort gate)” value is “high polyreactivity”.

For “QVQLVESGGGLVQAGGILRLSCAASGSIFQYNAKGWYIQEPGKEREFVAAISGSGTTTYYADSVKGRFTISRDNAKNTVYLQMNSLKPEDTAVYYCAKAIRHYPDVAYNAWGQGSQVTVSS”, the “polyreactivity (PSR sort gate)” value was “high polyreactivity”.

On to “QVQLVESGGGLVQAGGILRLSCAASGSIFRNYAMGWYRQAPGKERELVAAISVRGGSTYYADSVKGRFTISRDNTKNTVYLQMNSLKPEDTAVYYCNARTYYPVYYRDGGYWGQGTQVTVSS”, for which the “polyreactivity (PSR sort gate)” value is reported as “high polyreactivity”.

Consider “QVQLVESGGGLVQAGGILRLSCAASGSIFSGYAMGWYRQAPGKERELVAAITWRAASTYYADSVKGRFTISRDNAKNTVYLQMNSLKPEDTAVYYCAKEGWPKPAFYYWGQGTQVTVSS”, for which the “polyreactivity (PSR sort gate)” value is listed as “low polyreactivity”.

Consider “QVQLVESGGGLVQAGGILRLSCAASGSIFSPYVMGWYRQAPGKERELVAAISTGGSTYYADSVKGRFTISRDNAKNTVYLQMNSLKPEDTAVYYCATDGWKQSAYDYWGQGTQVTVSS”, for which the “polyreactivity (PSR sort gate)” value is reported as “low polyreactivity”.

Turning to “QVQLVESGGGLVQAGGILRLSCAASGSTFFSNTKGWYRQAPGKERELVAAITDSGTSTYYADSVKGRFTISRDIAKNTVYLQMNSLKPEDTAVYYGDAYPSGWYDYWGHGTQVTVSS”, the “polyreactivity (PSR sort gate)” value is given as “low polyreactivity”.

“QVQLVESGGGLVQAGGILRLSCAASGSTFQSNAMGWYRQAPGKERELVAAISSSAGTTFYADSVKGRFTISRDNAKNTVYLQMNSLKPEDTAVYYCAKKDFYFAPSPGYYRSRDYWGQGTQVTVSS”: the “polyreactivity (PSR sort gate)” value is recorded as “low polyreactivity”.

With “QVQLVESGGGLVQAGGILRLSCAASGSTIEFNAMGWYRPAPGKERELVAAISGSGASTYYADSVKGRFTISRDNAKNTVYLQMNSLTPEDTAVYYCNADSLYYDYQTVVVQALDYWGQGTQVTVSS”, the “polyreactivity (PSR sort gate)” value is given as “low polyreactivity”.

For “QVQLVESGGGLVQAGGILRLSCAASGSTLGFNAMGWYRLAPGKEREFDAGISASGSSTYYADSVKGRFTISRDNAKNTVYLQMNSLKPEDTAVYYCYAPRGSRRSYRRTEFYYWGQGTQVTVSS”, the “polyreactivity (PSR sort gate)” value was “high polyreactivity”.

Turning to “QVQLVESGGGLVQAGGILRLSCAASGSTTYYYAMGWYRQQPGKDRELVATISTTGAGTYYADSVKGRFTISRDNAKNTVYLQMNSLKPEDTAVYYCAKDGKASRDDAEYDYWGQGTQVTVSS”, the “polyreactivity (PSR sort gate)” value is recorded as “low polyreactivity”.

“QVQLVESGGGLVQAGGILRLSCAASGYNFKYYAMGWYRQAPGKERELVAAISRSGGSTYYADSVKGRFTISRDNAKNTVYLQMNSLTPEDTAVYYCAAYTHYAYGHDYWGQGTQVTVSS”: the “polyreactivity (PSR sort gate)” value was “high polyreactivity”.

“QVQLVESGGGLVQAGGILRLSCAAYGRTSSYTMGWDIQANGQERELVAAITRRGGSTYYADSVKGRFTISRDHAKNSVYLQMNSLKPEDTAVYYCAASYRGEYDYWGQGTQVTVSS”: the “polyreactivity (PSR sort gate)” value is recorded as “high polyreactivity”.

Consider “QVQLVESGGGLVQAGGILRLSCADSGRTFGSNAMGWYRQAPGKERELVAAISGRTDSTYYADSVKGRFTISRDNAKNTVYLQMNSLKPEDTAVYYCAADSADVLYYYIRYNYWGQGTQVTVSS”, for which the “polyreactivity (PSR sort gate)” value is on record as “low polyreactivity”.

With “QVQLVESGGGLVQAGGILRLSCAPYGSIFSQNAMGWYRQAPGKERELVAAISSSGTRTYYADSVKARFTISRDNAQNTVYLQMNSLKPEDTAVYYSNKVHFLPRYFLRSDYWGQGTQVTVSS”, the “polyreactivity (PSR sort gate)” value was “high polyreactivity”.

For “QVQLVESGGGLVQAGGILRLSCASSVTFFMGWYRQAPGKEWELVAGISISDVSTYYADSVKGRFTISRDNAKNTVYLQMNSLKPEDTAVYYCAAEFYPTTGFDYWGQGTQVTVSS”, the “polyreactivity (PSR sort gate)” value is “low polyreactivity”.

Consider “QVQLVESGGGLVQAGGILRLSCASYGSTFALYAMGWYRPAPGKERELVATITGSGGITYYADSVKGRFTISRDNAKNTVYLQMNSLKPVDTAVYYCAADPYTLYWYYWYGTSGFDYWGQGTQVTVSS”, for which the “polyreactivity (PSR sort gate)” value is “low polyreactivity”.

Turning to “QVQLVESGGGLVQAGGILRLSCDASGFTFYYYTMGWYRQAPGKERELVAAISKSGGTTYYADSVKGRFTISRDNAKNTVYLQMNSLKPEDTAVYYCAAKPWVWVYARYGKHPSYDYWGQGTQVTVSS”, the “polyreactivity (PSR sort gate)” value is on record as “high polyreactivity”.

As for “QVQLVESGGGLVQAGGILRLSCDASGITFSTYAMGWYRQAPGKERELVAAITRSGGTYYADSVKGSFTISRDNAKNTVYLQMNSLKPEDTAVYYCAASYTVFGVRRYGYWGQGTQVTVSS”, the “polyreactivity (PSR sort gate)” value was “high polyreactivity”.

“QVQLVESGGGLVQAGGILRLSCDASGLIFGPYTMGWYRQAPGKERELVAAISYGGVSTYYADSVKGRFTISRDNAKNTVYLQMNSLKPEDTAVYYCARGDSTRVIRPSAREYDYWGQGTQVTVSS”: the “polyreactivity (PSR sort gate)” value is “low polyreactivity”.

As for “QVQLVESGGGLVQAGGKLRLSCAASGSIFSDYTMGWYRQAPGKERELVAVITLSSGSTYYADSVKGRFTISRDNAKNTVYLQMNSLKPEDTAVYYCAADGWYYFGSGVFEYDYWGQGTQVTVSS”, the “polyreactivity (PSR sort gate)” value was “low polyreactivity”.

For the sequence “QVQLVESGGGLVQAGGNLLLSCAASGFNFVDYAMGWSRQAPGKERELVASIDRSDGSTYYADSVKGRFTFSRDNAKNTVYLLMNSLKPEDTAVYYCAAADQLYSISTGDYWGQGTQVTVSL”, the “polyreactivity (PSR sort gate)” value is recorded as “low polyreactivity”.

Take “QVQLVESGGGLVQAGGNLRLSCAASGNIFYVYAMGWYRQAPGKERELVAAITRSGGRTYYADSVKGRFTISRDNAKNTVYLQMNSLKPEETAVYYCAADRGVTRQKMDYWGQGTQVTVSS”: the “polyreactivity (PSR sort gate)” value was “low polyreactivity”.

“QVQLVESGGGLVQAGGPLRLSCAASGYLFSYYAMGWSRQAPGKERELVATIDWGGGSTYYADSVKGRFTISRDNANNTVYLQLNSLKPEDTAVYYCSKDYYINKYGYRYDSWGQGTQVTVSS”: the “polyreactivity (PSR sort gate)” value is recorded as “low polyreactivity”.

“QVQLVESGGGLVQAGGRLLLSCAASGFTFYTYAMGWYRQAPGKERELVADISSGGSTNYADSVKGRFTISRDNAKNTVYLQMNSLKPEDTAVYYCSADYYFLDWYDYWGQGTQVTVSS”: the “polyreactivity (PSR sort gate)” value was “low polyreactivity”.

Consider “QVQLVESGGGLVQAGGRLRISCAASGAIFGEYPMGWYSQAPGKERELVADITTGGNTNYADSVKGRFTITRDNAKNTVYVHMNSLKPEDTAVYYCIAYGNTYGYWWFGYWGQGTQVNVSS”, for which the “polyreactivity (PSR sort gate)” value is recorded as “low polyreactivity”.

On to “QVQLVESGGGLVQAGGRLRISCAASGRIFPYNAMGWYIQAPGKERELVAAINWSGGSTYYADSVKGRFTISRDNAKNTVYLQMNSLKPEDTAVYYCAVKTVRSSSRNYWGQGTQVTVSS”, for which the “polyreactivity (PSR sort gate)” value is recorded as “high polyreactivity”.

For the sequence “QVQLVESGGGLVQAGGRLRISCAASGSIFEGNGMGWYRQAPGKQREFVAAITNRGGSTYYADSVKGRFTISRDNAKNTVYVQMISLKPEDTAVFYCAADWTTNPDYQQSYFVSYEYNYWGHGTQVTVSS”, the “polyreactivity (PSR sort gate)” value was “low polyreactivity”.

Take “QVQLVESGGGLVQAGGRLRISCAATGSTSVRNAMGWSRQGPGKESELVAGISRGGGITYYADSVKGRFTISRDNAKNTVYLQMNILKTEDTAVYYCAAVYYVDYPDGNYEYWGQGTQVTVSS”: the “polyreactivity (PSR sort gate)” value was “high polyreactivity”.

“QVQLVESGGGLVQAGGRLRISCADSGSTFQFYALGWYRQAPGKERQLVASIRVRSGTTYYADSVKGRFTISRENAKNTVYLQMTSLKPEDTAVYYCAAGRPFYGRKYDYWGQGTQVTVSS”: the “polyreactivity (PSR sort gate)” value was “high polyreactivity”.

Consider “QVQLVESGGGLVQAGGRLRLICAASGFTFGGNVMGWYRQAPGKERELVAAISSSGGSTYYADSVKGRFTISRDNAKNTVYLQMNSLKPEDTAVYYCAKYAVFYQYRYYHWGQGTQVTVSS”, for which the “polyreactivity (PSR sort gate)” value is given as “high polyreactivity”.

On to “QVQLVESGGGLVQAGGRLRLICAASGRIFYRNAMGWYRQAPGKERELVAAISYSGGRTYYADSVKGRFTISRDIAKYTVYLQMNRLKPEDTAVYYCAVYGYHEGGYWGQVTQVTVSS”, for which the “polyreactivity (PSR sort gate)” value is “high polyreactivity”.

Take “QVQLVESGGGLVQAGGRLRLICAASGRTFVVNAMGWYRQAPGQERELVAAITRRAGITYYADSVKGRFTISRDNAKNTVYLQMNSLKPEDTAVYYCAADRSYFPDTRTTYGYNYWGQGTQVTVSS”: the “polyreactivity (PSR sort gate)” value is reported as “low polyreactivity”.

In the case of “QVQLVESGGGLVQAGGRLRLICAASGSTFYYNALGWYRQAPGKERELVAGISRSGGSTYYADSVKGRFTISRDNAKNTVYLQMNSLKPEDTAVYYCAAKSYAYRWYDYWGQGTQVTVSS”, the “polyreactivity (PSR sort gate)” value is recorded as “high polyreactivity”.

Regarding “QVQLVESGGGLVQAGGRLRLICAASGSTLYSYAMGWYRQAPGKEREFVAAISRRGGSTYYADSVKGRFTISRDNAKNTVYLQMNSLKPEDTAVYYCAARDSSYHWYGYWGQGTQVTVSS”, the “polyreactivity (PSR sort gate)” value was “high polyreactivity”.

On to “QVQLVESGGGLVQAGGRLRLICAASGYTFPLYAMGWYRPAPGKERELVADINIGGASTYYADSVKGRFTISRDNAKNTVELQMNSLKPEDPAVYYCAKEYYDGYFPTFDYDYWGQGTQVTVSS”, for which the “polyreactivity (PSR sort gate)” value is listed as “low polyreactivity”.

Turning to “QVQLVESGGGLVQAGGRLRLICSASGRIIKDNAMGWYRQAPGKERELVADISSSGGSTYYADSVKGRFTISRDNAKNTVYLQMNSLKPEDTAVYYFAKYRYPSRLYSFPLGYDYWGQGTQVTLSS”, the “polyreactivity (PSR sort gate)” value is on record as “high polyreactivity”.
